Laboratory results from doi:10.1101/356592 (bioRxiv, 2018).

B1: His6-tagged Mei5-Sae3 heterodimer (complex, Saccharomyces cerevisiae)
chain 1: MHNQEEWLDKDKTLVNEEENTCINHSYTKKDTNNYRVGKSGIKDLKKPTNQKEIAIKNRELTKQLTLLRQENNHLQQACKILSENKIIENRKSIEKWRTICEMELSFILNSTLIKINRMGGYKDFLEKEMEAKKRRLEYQIDNGMEDQICEIKESDDFRQLSEVEKQEWESQMNEQLKELEKKKIAELEKLNKVLHDSEGKDFGMAELCTRLKLDYSLIFPQ
chain 2: MNYLETQLNKKQKQIQEYESMNGNLIKMFEQLSKEKKNDETPKKISSTYIKELKEYNELRDAGLRLAQIIADEKQCKIKDVFEEIGYSMKD
B2: His6-tagged Dmc1 (natural protein, Saccharomyces cerevisiae, UniProt P25453 1-334, looked up)
chain: MSVTGTEIDSDTAKNILSVDELQNYGINASDLQKLKSGGIYTVNTVLSTTRRHLCKIKGLSEVKVEKIKEAAGKIIQVGFIPATVQLDIRQRVYSLSTGSKQLDSILGGGIMTMSITEVFGEFRCGKTQMSHTLCVTTQLPREMGGGEGKVAYIDTEGTFRPERIKQIAEGYELDPESCLANVSYARALNSEHQMELVEQLGEELSSGDYRLIVVDSIMANFRVDYCGRGELSERQQKLNQHLFKLNRLAEEFNVAVFLTNQVQSDPGASALFASADGRKPIGGHVLAHASATRILLRKGRGDERVAKLQDSPDMPEKECVYVIGEKGITDSSD

Assays:
[1] = molecular target: Replication protein A (RPA) (Saccharomyces cerevisiae, UniProt P22336 1-621; P26754 1-273; P26755 1-122); test: pull-down
Replication protein A (RPA), sequence (P22336 whole entry, chain 1 of 3): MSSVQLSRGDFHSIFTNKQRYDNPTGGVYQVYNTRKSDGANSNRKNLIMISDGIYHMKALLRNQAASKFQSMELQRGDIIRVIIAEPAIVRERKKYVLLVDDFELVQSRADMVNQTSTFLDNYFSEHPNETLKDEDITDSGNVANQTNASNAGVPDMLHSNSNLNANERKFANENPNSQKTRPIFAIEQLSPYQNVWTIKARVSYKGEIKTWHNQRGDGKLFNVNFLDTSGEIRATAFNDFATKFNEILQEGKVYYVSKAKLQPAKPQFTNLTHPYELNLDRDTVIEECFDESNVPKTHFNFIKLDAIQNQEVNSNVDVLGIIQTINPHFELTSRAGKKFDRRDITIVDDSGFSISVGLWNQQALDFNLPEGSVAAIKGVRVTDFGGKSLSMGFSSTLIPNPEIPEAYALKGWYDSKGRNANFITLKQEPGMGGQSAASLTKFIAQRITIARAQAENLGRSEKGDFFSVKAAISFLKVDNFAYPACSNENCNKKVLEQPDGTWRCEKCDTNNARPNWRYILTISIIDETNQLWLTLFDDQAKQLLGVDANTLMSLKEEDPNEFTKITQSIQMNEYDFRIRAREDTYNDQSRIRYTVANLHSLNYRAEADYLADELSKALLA
Replication protein A (RPA), sequence (P26754 whole entry, chain 2 of 3): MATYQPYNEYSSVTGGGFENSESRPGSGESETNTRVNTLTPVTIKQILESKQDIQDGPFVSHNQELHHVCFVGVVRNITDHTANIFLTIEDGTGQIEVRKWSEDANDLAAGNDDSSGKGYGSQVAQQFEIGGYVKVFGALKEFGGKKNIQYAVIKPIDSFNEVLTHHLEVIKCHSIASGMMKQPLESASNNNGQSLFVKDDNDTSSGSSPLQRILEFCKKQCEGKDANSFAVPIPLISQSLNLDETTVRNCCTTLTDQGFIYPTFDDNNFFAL
Replication protein A (RPA), sequence (P26755 whole entry, chain 3 of 3): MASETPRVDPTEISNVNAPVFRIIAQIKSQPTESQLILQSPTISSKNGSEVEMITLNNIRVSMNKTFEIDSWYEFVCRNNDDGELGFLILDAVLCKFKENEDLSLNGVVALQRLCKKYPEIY

[2] = molecular target: B2; test: co-IP

binding result [1] | binding result [2] | Binder
binds | binds | B1
binds | – | B2
